The target in this test is T1, Full-length human TIP47/perilipin-3 (human), O60664.
T1 chain: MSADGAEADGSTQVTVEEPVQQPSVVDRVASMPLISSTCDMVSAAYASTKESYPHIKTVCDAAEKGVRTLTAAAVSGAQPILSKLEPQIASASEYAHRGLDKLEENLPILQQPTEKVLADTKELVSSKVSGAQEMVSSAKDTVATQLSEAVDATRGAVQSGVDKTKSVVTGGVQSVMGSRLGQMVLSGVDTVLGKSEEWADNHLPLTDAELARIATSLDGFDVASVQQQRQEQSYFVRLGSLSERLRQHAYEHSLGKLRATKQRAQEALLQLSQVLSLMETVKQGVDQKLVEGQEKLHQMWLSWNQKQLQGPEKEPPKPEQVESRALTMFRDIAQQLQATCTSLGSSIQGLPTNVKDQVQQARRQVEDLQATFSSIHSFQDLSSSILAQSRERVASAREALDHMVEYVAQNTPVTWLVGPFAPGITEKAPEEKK
In words: SEC-MALS. The conditions noted are these: remark: other sources report otherwise. (SEC sorts molecules by how far they enter the pores of the column.)

B1: Full-length human TIP47/perilipin-3, O60664 1-434 (natural protein)
chain: MSADGAEADGSTQVTVEEPVQQPSVVDRVASMPLISSTCDMVSAAYASTKESYPHIKTVCDAAEKGVRTLTAAAVSGAQPILSKLEPQIASASEYAHRGLDKLEENLPILQQPTEKVLADTKELVSSKVSGAQEMVSSAKDTVATQLSEAVDATRGAVQSGVDKTKSVVTGGVQSVMGSRLGQMVLSGVDTVLGKSEEWADNHLPLTDAELARIATSLDGFDVASVQQQRQEQSYFVRLGSLSERLRQHAYEHSLGKLRATKQRAQEALLQLSQVLSLMETVKQGVDQKLVEGQEKLHQMWLSWNQKQLQGPEKEPPKPEQVESRALTMFRDIAQQLQATCTSLGSSIQGLPTNVKDQVQQARRQVEDLQATFSSIHSFQDLSSSILAQSRERVASAREALDHMVEYVAQNTPVTWLVGPFAPGITEKAPEEKK
As usually defined, the stoichiometry N is a count of units in the complex or per binding partner. Take B1: the stoichiometry N came to 2.

These data come from article PMC3393791.
